Results taken from patent US20140348865A1, “[…] ON AN HIV-1 V1V2 SITE-OF-VULNERABILITY” (The United States of America, as represented by the …, priority 2011, published 2014).
Residue numbers refer to the chain shown, from its start.

B1: 1x3e_C: minimal PG9 epitope-scaffold, SEQ ID NO: 68 in Table 2 (SEQ ID NO: 67 in b296), native scaffold PDB 1X3E (protein)
chain: GDTTITVVGNLTADPELRFTPSGAAVANFTVASTGSALFLRCNIWREAAENVAESLTRGSRVIVTGRLCVKHASFNITTDVKDRKQKVNATFYCVEVDEIGPSLR
modifications: Human immunodeficiency virus
B2: 1x3e_a: minimal PG9 epitope-scaffold, SEQ ID NO: 66, native scaffold PDB 1X3E (protein)
chain: B1 chain with C69K, A73C, C94E
modifications: Human immunodeficiency virus
B3: 2vxs_a: minimal PG9 epitope-scaffold, SEQ ID NO: 37, native scaffold PDB 2VXS (protein)
chain: TNPKRSSDYYNRSTSPWNLHRNEDPERYPSVIWEAKCRHLGCINADGNVDYHMNSISQNITTDVKDRKQKVNATCTCVTPIVH
modifications: Human immunodeficiency virus
B4: 1YN3_A: minimal PG9 epitope-scaffold, SEQ ID NO: 28, native scaffold PDB 1YN3 (protein)
chain: GSHVSFNITTDVKDRKQKVNATFYKNQNISYKDLEGKVKSVLESNRGITDVDLRLSKQAKYTVNFKNGTKKVIDLKSGIYTANLINSSDIKSININID
modifications: Human immunodeficiency virus
B5: 2zjr_a: minimal PG9 epitope-scaffold, SEQ ID NO: 17, native scaffold PDB 2ZJR (protein)
chain: SHYDILQAPVISEKAYSAMERGVYSFWVSPGATKTEIKDAIQQAFGVRVIGISVKHCSFNITTDVKDRKQKVNATFAIVRLAEGQSIEALAGQ
modifications: Human immunodeficiency virus
B6: 2zjr_b: minimal PG9 epitope-scaffold, SEQ ID NO: 18, native scaffold PDB 2ZJR (protein)
chain: B5 chain with V54T, C57A
modifications: Human immunodeficiency virus
B7: 2ZJR: 2ZJR epitope-scaffold of FIG. 58; legend leaves open whether 2ZJR_A or 2ZJR_B (protein)
chain: B5 chain
B8: 1t0a_a: minimal PG9 epitope-scaffold, SEQ ID NO: 77, native scaffold PDB 1T0A (protein)
chain: KIRIGHGFDVHKFGKHASFNITTDVKDRKQKVNATFGLVAHSDGDVVLHAISDAILGAMALGDIGKHFPDTDAAYKGADSRVLLRHCYALAKAKGFELGNLDVTIIAQAPKMAPHIEDMRQVLAADLNADVADINVKATTTEKLGFTGRKEGIAVEAVVLLSRQG
modifications: Human immunodeficiency virus
B9: 1vh8_c: minimal PG9 epitope-scaffold, SEQ ID NO: 65, native scaffold PDB 1VH8 (protein)
chain: SLIRIGHGFDVHAFGKHASFNITTDVKDRKQKVNATFGFIAHSDGDVALHALTDAILGAAALGDIGKLFPKNADSRGLLREAFRQVQEKGYKIGNVDITIIAQAPKMRPHIDAMRAKIAEDLQCDIEQVNVKATTTEKLGFTGRQEGIACEAVALLIRQ
modifications: Human immunodeficiency virus
B10: 1vh8_a: minimal PG9 epitope-scaffold, SEQ ID NO: 63, native scaffold PDB 1VH8 (protein)
chain: B9 chain with G15V, A18C, G38Y
modifications: Human immunodeficiency virus
B11: 1vh8 b: minimal PG9 epitope-scaffold, SEQ ID NO: 64, native scaffold PDB 1VH8 (protein)
chain: B9 chain with G15V, G38Y
modifications: Human immunodeficiency virus
B12: 3pyr_a: minimal PG9 epitope-scaffold, SEQ ID NO: 76, native scaffold PDB 3PYR (protein)
chain: MKTAYDVILAPVLSEKAYAGFAEGKYTFWVHPKATKTEIKNAVETAFKVKVVKVNTKHASFNITTDVKDRKQKVNATFAIVQVAPGQKIEALEGLIG
modifications: Human immunodeficiency virus
B13: PG9e-encapsulin (ZM109): encapsulin particle displaying the minimal PG9 epitope (gp120 154-177) of HIV-1 strain ZM109 (protein)
chain: MEFLKRSFAPLTEKQWQEIDNRAREIFKTQLYGRKFVDVEGPYGWEYAAHPLGEVEVVKHSSFNITTDVKDRKQKVNATFGLRKSLPLIELRATFTLDLWELDNLERGKPNVDLSSLEETVRKVAEFEDEVIFRGCEKSGVKGLLSFEERKIECGSTPKDLLEAIVRALSIFSKDGIEGPYTLVINTDRWINFLKEEAGHYPLEKRVEECLRGGKIITTPRIEDALVVSERGGDFKLILGQDLSIGYEDREKDAVRLFITETFTFQVVNPEALILLK
B14: PG9e-ferritin (ZM109): ferritin particle displaying the minimal PG9 epitope (gp120 154-177) of HIV-1 strain ZM109 (protein)
chain: MLSKDIIKLLNEQVNKEMQSSNLYMSMSSWCYTHSLDGAGLFLFDHAAEEYEHAKKLIIFLNENNVPVQLTSISAPEHKFEGLTQIFQKAYEHEQHISESINNIVDHAIGVKHSSFNITTDVKDRKQKVNATFYGKDHATFNFLQWYVAEQHEEEVLFKDILDKIELIGNENHGLYLADQYVKGIAKSRKS
B15: 2f7s_B: minimal PG9 epitope-scaffold, SEQ ID NO: 52, native scaffold PDB 2F7S (protein)
chain: DYDYLIKLLALGDSGVGKTTFLYRYTDNKFNPKFITTVGIDVKHASFNITTDVKDRKQKVNATFYDTAGQERFRSLTTAFFRDAMGFLLMFDLTSQQSFLNVRNWMSQLQANAYCENPDIVLIGNKADLPDQREVNERQARELADKYGIPYFETSAATGQNVEKAVETLLDLIMKRMEQCVE
modifications: Human immunodeficiency virus
B16: 2f7s_C: minimal PG9 epitope-scaffold, SEQ ID NO: 53, native scaffold PDB 2F7S (protein)
chain: B15 chain with D41C, D66C
modifications: Human immunodeficiency virus

What was measured:
Format in all cases: binding, human
[1] = test system: monoclonal antibody PG9; test: ELISA of minimal epitope scaffolds with PG9; conditions: GnTI- cell expression
Protocol: (§1) The supernatants of all wells expressing minimal epitope scaffolds were tested for binding to PG9, CH01, CH03, PGT145 and PGT142 antibodies through ELISA assays in which the supernatant was diluted 5-fold in PBS and incubated on nickel coated plates. […] Some, such as 2ZJR_A, were run over a protein A column coated in PG9 which was subsequently cleaved from the column resulting in an eluted complex consisting of the scaffolds and the PG9 Fab.

[2] = test system: PG9 Fab; test: Gel filtration of epitope scaffold complex with PG9 Fab
Protocol: as §1

[3] = test system: PG9; test: Immunoprecipitation of protein nanoparticles with PG9; conditions: Protein A agarose, SDS-PAGE, Coomassie stain
Protocol: (§2) The minimal PG9 epitope (residues 154-177) or variations thereof, were inserted or fused to ferritin, encapsulin or SOR genes using the schemes shown in FIG. 59. The expression plasmids were transfected into HEK293 cells grown in the presence of swainsonine, or transfected into HEK293 GnTI^−/− cells. Particles were purified from the media using lectin affinity chromatography (snow drop lectin from Galanthus nivalis) followed by size-exclusion chromatography. Binding experiments were performed by incubating purified particles or particle-containing expression supernatant with the listed antibodies (PG9, PG16, VRC01) and Protein A agarose resin. After this incubation, the resin was pelleted and washed several times, and then incubated with SDS-containing buffer at 100 C. The solubilized and denatured proteins were separated by SDS-PAGE and visualized with Coomassie stain.

[4] = test system: PG16; test: Immunoprecipitation of protein nanoparticles with PG16; conditions: Protein A agarose, SDS-PAGE, Coomassie stain
Protocol: as §2

Molecule | binding to monoclonal antibody PG9 [1] | also measured
B1 | bind | 
B2 | bind | 
B3 | bind | 
B4 | bind | 
B5 | bind | complex with PG9 Fab through gel filtration [2]: intact complex
B6 | bind | 
B7 |  | complex with PG9 Fab through gel filtration [2]: forms a stable complex
B8 | bind | 
B9 | bind | 
B10 | bind | 
B11 | bind | 
B12 | bind | 
B13 |  | immunoprecipitation by PG9 [3]: immunoprecipitate
B14 |  | immunoprecipitation by PG9 [3]: immunoprecipitate; immunoprecipitation by PG16 [4]: interacts
B15 | bind | 
B16 | bind | 
